In the supplement of paper PMC10724198:
± gives the standard deviation of the averaged measurements.

Tested on: Saccharomyces cerevisiae
Assay: protein stability index of tFT-peptide fusion (C-terminal peptide) (PSI (0-1 scale)); higher = more stable (slower turnover)
Details: genetic background: wild type; temperature: 30 C
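Also: PSI is a weighted mean of sequencing reads over stability bins, variants kept only with over 10 reads, mCherry proximal and sfGFP distal, peptide attached via GGGS linker.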

| Sequence | protein stability index |
| --- | --- |
| SFCGVLCIRACF | 0.623 ± 0.026 |
| SFCSSVFWFFWL | 0.584 ± 0.037 |
| SFCYFSCPSLIM | 0.718 ± 0.11 |
| SFFFRSYCFPAP | 0.7169 ± 0.0037 |
| SFFGPLADEIID | 0.73 ± 0.014 |
| SFFGRVDSRSLP | 0.7184 ± 0.0025 |
| SFGACSTSERIN | 0.666 ± 0.07 |
| SFLPDCLSLFLF | 0.612 ± 0.058 |
| SFLTPFLLSYAT | 0.636 ± 0.0038 |
| SFLWRRSYFVFR | 0.616 ± 0.017 |
| SFPASSLPHSLL | 0.716 ± 0.043 |
| SFPLPSPSPLLP | 0.712 ± 0.05 |
| SFPPTSPTHFPL | 0.703 ± 0.031 |
| SFPRSHPPPFPP | 0.674 ± 0.012 |
| SFRDSFVNFGVF | 0.695 ± 0.045 |
| SFSPEQITCNPY | 0.598 ± 0.037 |
| SFTGSASYPKGR | 0.667 ± 0.0098 |
| SFVLKAFLTRAV | 0.765 ± 0.23 |
| SGAGRRRGGARE | 0.651 ± 0.031 |
| SGCVARTRGLSG | 0.62 ± 0.018 |
| SGDCRLPLPRSP | 0.711 ± 0.022 |
| SGEEVRSVARFF | 0.629 ± 0.035 |
| SGEVIRVTDWLV | 0.719 ± 0.038 |
| SGGGGGKEAVVR | 0.646 ± 0.019 |
| SGHGGAARRPAP | 0.733 ± 0.08 |

| Sequence | protein stability index |
| --- | --- |
| SGHSRCSPALPV | 0.7123 ± 0.002 |
| SGKKERQKTEEE | 0.645 ± 0.1 |
| SGKSSFLGAVWV | 0.711 ± 0.0061 |
| SGLLGVSIHGLR | 0.654 ± 0.053 |
| SGLRAFVVTLID | 0.673 ± 0.011 |
| SGLRHACTPKSD | 0.671 ± 0.024 |
| SGPRRECVPRSV | 0.682 ± 0.066 |
| SGRGGTGIGERV | 0.6694 ± 0.00092 |
| SGRGQQEENRRL | 0.7 ± 0.011 |
| SGSDGLLVGAPG | 0.666 ± 0.047 |
| SGSGVGVVVSEV | 0.666 ± 0.049 |
| SGSVRSCSNTCL | 0.6935 ± 0.0011 |
| SGTQSGAFSRGQ | 0.642 ± 0.081 |
| SGVGCGRSRWVW | 0.626 ± 0.029 |
| SGVVGLSTSGVV | 0.695 ± 0.063 |
| SGWSWLGLRSGL | 0.738 ± 0.025 |
| SGYSTRPLSSRS | 0.723 ± 0.041 |
| SHLSRSYPGLQL | 0.742 ± 0.027 |
| SHPLLPPHLPPP | 0.682 ± 0.082 |
| SHPPATMRAASV | 0.6646 ± 0.0043 |
| SHRYFFLAFSGL | 0.655 ± 0.02 |
| SHWCLQTQAACK | 0.65529 ± 0.00032 |
| SILPRWEFKSLS | 0.802 ± 0.06 |
| SILSRPERPLTN | 0.658 ± 0.044 |
| SIPSIPTLHENT | 0.67593 ± 0.00066 |

| Sequence | protein stability index |
| --- | --- |
| SISVLSSSSLGF | 0.741 ± 0.12 |
| SITYDRLLPHSS | 0.6594 ± 0.0063 |
| SIVRKRPRTTAT | 0.682 ± 0.031 |
| SIYNKNKKIKQK | 0.688 ± 0.07 |
| SKDFLLILDPAK | 0.662 ± 0.021 |
| SKEVVVEGKRQS | 0.715 ± 0.065 |
| SKITENTKKKGK | 0.658 ± 0.019 |
| SKKKITGGEAGH | 0.677 ± 0.046 |
| SKLQGYRKLLST | 0.567 ± 0.0065 |
| SKLVEIIMKLQG | 0.618 ± 0.055 |
| SKPYNSAIKDIT | 0.725 ± 0.096 |
| SKRCNNNRNTSN | 0.69 ± 0.044 |
| SKVLKSKSTGRG | 0.75 ± 0.11 |
| SKVLRRLEPTIV | 0.603 ± 0.04 |
| SKWGQIKRVAIR | 0.592 ± 0.038 |
| SLAPLPARAPPL | 0.725 ± 0.018 |
| SLCTAGCKNELW | 0.692 ± 0.076 |
| SLDALVDFWSRG | 0.737 ± 0.066 |
| SLDDWSAVFHVV | 0.542 ± 0.012 |
| SLDFTERHALAC | 0.709 ± 0.031 |
| SLDKCDKNNGGE | 0.733 ± 0.065 |
| SLEWVGGRRWPI | 0.731 ± 0.014 |
| SLFSLLVLPPPS | 0.706 ± 0.035 |
